Read-outs that look alike come from different tables or passages of the source.
Legend:
[1] = target: T1, Recombinant human PD-1 human-FC Chimera (R&D Systems) (human, UniProt Q15116 25-170); assay: ELISA, coated recombinant human PD-1 human-Fc chimera
T1 construct: Bought construct; also called recombinant human-PD-1 extracellular domain; hPD-1 (ELISA); not shown: human Fc part of the bought chimera
Procedure: (§1) The binding potency of chimeric and humanized anti-PD-1 antibodies to recombinant human-PD-1 extracellular domain was determined by ELISA. Recombinant human PD-1 human-FC Chimera (R&D Systems) was coated on 384-well MaxiSorp™ flat bottom plates (Nunc) at a concentration of 0.625 μg/mL in PBS (Vendor) for 60 minutes at room temperature. Coated plates were washed three times with PBS, 0.1% Tween (PBS-T), blocked by incubation with PBS, 2% BSA, 0.05% Tween for 60 minutes at room temperature, and washed for an additional three times with PBS-T. Anti-PD-1-antibodies were added in PBS, 0.5% BSA, 0.05% Tween (ELISA buffer) in concentrations ranging from 1,000 to 0.06 ng/mL or 2,500 to 0.15 ng/mL and the plate was incubated for 60 minutes at room temperature. […] After 3 washes with PBS-T, horseradish peroxidase coupled goat-anti-human-IgG (Fab′)₂ fragment (AbD Serotec; Cat. No. STAR126P) was added in ELISA buffer at a dilution of 1:5,000. The plate was incubated for 60 minutes at room temperature, and washed 6 times with PBS-T before TMB solution (Thermo Fisher Scientific) was added. After 10 minutes HCl was added and the absorbance at wavelengths of 450 and 620 nm recorded using a Tecan Infinite M1000 reader. Data was fitted with a 4-parameter logistic model and EC50 values calculated using GraphPad Prism 8.4.3 (GraphPad Software, San Diego, CA, USA).

[2] = target: T2, full-length human PD-1 expressed on cells (human, UniProt Q15116 25-288); assay: cell binding, HEK-293 cells expressing full-length human PD-1, CellInsight CX5 imaging
T2 construct: also called HEK-293 cells ectopically expressing full-length human-PD1 (BPS Biosciences)
Procedure: (§2) Binding of chimeric and humanized anti-PD-1 antibodies to cell surface expressed hPD-1 was analyzed using HEK-293 cells ectopically expressing full-length human-PD1 (BPS Biosciences; Cat. No. 60680). Cell cultures were grown in MEM containing 10% FCS, ix MEM NEAA, 1 mM Na pyruvate and 100 μg/mL Hygromycin B. Hygromycin B was omitted when cells were plated for testing antibody binding. 1,000 cells in 20 μL medium were seeded per well in black 384-well cell-culture treated plates with clear bottom and were incubated for 2 hours at 37° C. and 5% CO₂. Anti-PD-1 antibodies were added in 5 μL medium to final concentrations ranging from 1,000 to 0.06 ng/mL or 620 to 0.45 ng/mL. […] After an 18 hours incubation at 37° C. and 5% CO₂, plates were washed once with 25 μL PBS, 0.05% Tween 20 (cell wash buffer) and Alexa-Fluor-488-conjugated AffiniPure goat-anti-human-IgG F(ab′)₂ fragment (Vendor) was added at a concentration of 0.8 μg/mL in 20 μL medium. Plates were incubated for 4 hours at 37° C. and 5% CO₂ in the dark, washed once with 25 μL cell wash buffer and incubated for 10 minutes with 20 μL medium containing 5 μg/ml Hoechst (Invitrogen). Cell-associated immunofluorescent signals were recorded using a CellInsight CX5 high content imager device (Thermo Fisher). Data was fitted with a 4-parameter logistic model and EC50 values calculated using GraphPad Prism 8.4.3.

[3] = target: T2, full-length human PD-1 expressed on …; assay: cell-based or functional assay
[4] = target: T2, full-length human PD-1 expressed on …; assay: cell binding, HEK-293 cells expressing full-length human PD-1, CellInsight CX5 imaging; remark: listed apart in the source
Procedure: as §2

[5] = target: T2, full-length human PD-1 expressed on …; assay: cell-based or functional assay; remark: listed apart in the source
[6] = target: T1, Recombinant human PD-1 human-FC Chimera …; assay: ELISA, coated recombinant human PD-1 human-Fc chimera; remark: listed apart in the source
Procedure: as §1

[7] = target: T2, full-length human PD-1 expressed on …; assay: flow cytometry, K562 cells electroporated with full-length human PD-1 mRNA, dilutions of RiboMab-containing supernatant
Procedure: 20×10⁶ cells K562 cells growing in log-phase were used for electroporation of full-length human PD-1. Cells in 250 μL X-Vivo 15 medium (LONZA Technologies, cat. no. BE02-060F) were combined in 4 mm gap cuvettes with 10 μg human PD-1-encoding IVT-mRNA. Cells were immediately electroporated with a BTX ECM830 (BTX Harvard Apparatus) with the following setting: 200 V, 3 pulses, 8 ms.
Binding of RiboMabs to K562 cells expressing PD-1 was analyzed by flow cytometry. […] Cells were washed twice with FACS buffer, re-suspended in 60 μL FACS buffer and analyzed on a BD FACSCanto™ II flow cytometer (BD Biosciences). Binding curves were analyzed by non-linear regression (log(agonist) vs. response—variable slope (four parameters)) using GraphPad Prism V9.1.0 software.

T1 sequence (Q15116 25-170, change not shown): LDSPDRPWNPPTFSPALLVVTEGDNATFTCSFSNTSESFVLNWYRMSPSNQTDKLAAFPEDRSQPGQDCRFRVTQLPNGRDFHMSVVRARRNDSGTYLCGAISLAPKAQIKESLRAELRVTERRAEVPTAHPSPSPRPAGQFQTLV
T2 sequence (Q15116 25-288 limits assumed): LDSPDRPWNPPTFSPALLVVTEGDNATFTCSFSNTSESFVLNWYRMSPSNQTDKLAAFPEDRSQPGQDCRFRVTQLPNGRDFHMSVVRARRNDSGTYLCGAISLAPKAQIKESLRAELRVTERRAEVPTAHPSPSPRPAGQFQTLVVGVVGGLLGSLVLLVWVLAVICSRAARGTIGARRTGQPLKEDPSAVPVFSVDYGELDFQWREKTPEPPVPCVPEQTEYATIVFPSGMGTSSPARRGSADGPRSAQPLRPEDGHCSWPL

Binder | EC50 [1] [ng/mL] | EC50 [2] [µg/mL] | hPD-1 blockade assay IC50 [3] [ng/mL] | EC50 [4] [ng/mL] | hPD-1 blockade assay IC50 [5] [ng/mL] | EC50 [6] [ng/mL] | fold difference in EC50 values (RiboMab-19-0233 against RiboMab-19-0202) [7] [fold]
MAB-19-0223 (antibody, human IgG1, V domains shown, Chimeric rabbit/human antibody, human IgG1 constant parts with L234A and L235A (LALA); also called chimeric anti-PD-1 MAB-19-0223) VH: QEHLVESGGGLVQPEGSLTLTCKASGIDFSDTYWICWVRQPPGKGLEWIGCIGIGGSGSTYYAGWAKGRFTISKTSSTTVTLQMTTLTDADTATYFCATEIPYFNVWGPGTLVTVSS VL: AQVLTQTPSSVSAAVGGTVTINCQSSQSVYNKNWLAWYQQKPGQPPKLLIYDASKLTSGVPSRFKGSGSGTQFTLTISGVQSDDAATYYCQGTYDVNGWLVAFGGGAEVVVK | 6.6 | 0.007 | 913 | – | – | – | –
MAB-19-0202 (antibody, V domains shown, Chimeric rabbit/human antibody: rabbit variable regions cloned N-terminal of human IgG1 / kappa constant parts with L234A and L235A (LALA)) VH: QSVEESGGRLVTPGTPLTLTCTVSGFSLYSYNMGWVRQAPGKGLEYIGIISGGTIGHYASWAKGRFTISKTSSTTVDLKMTSLTTEDTATYFCARAFYDDYDYNVWGPGTLVTVSS VL: AAVLTQTPSPVSAAVGGTVTISCQSSQSVYGNNQLSWYQQKPGQPPKLLIYQASKLETGVPSRFKGSGSGTQFTLTISDLESDDAATYYCAGGYSSSSDTTFGGGTEVVVK | 3.5 | – | 324 | 0.5 | 56 | 4 | –
MAB-19-0233 (antibody, human IgG1, V domains shown, Chimeric rabbit/human antibody, human IgG1 constant parts with L234A and L235A (LALA)) VH: QSLEESGGDLVKPGASLTLTCKASGIDFSSVYYMCWVRQAPGKGLEWIACIYVGSSGVSYYATWAKGRFTISKTSSTTVTLQMTSLTAADTATYFCARAGYVGAVYVTLTRLDLWGQGTLVTVSS VL: AAVLTQTPSPVSAAVGGTVTISCQSSQSIYTNNDLAWYQQKPGQPPKLLIYDASKLASGVPSRFSGSGSGTQFTLTISGVQSDDAATYYCLGGYDDDADNAFGGGTEVVVK | 6.3 | 0.0168 | 657 | 2.4 | – | 7.2 | –
MAB-19-0208 (antibody, human IgG1, V domains shown, Chimeric rabbit/human antibody, human IgG1 constant parts with L234A and L235A (LALA); also called chimeric anti-PD-1 MAB-19-0208) VH: QSVEESGGRLVTPGTPLTLTCTVSGFSLSRYYISWVRQAPGKGLEWIGSFYADSGTTWYATWVKGRFTFSTASSTTVDLKMTSPTTEDTATYFCARNSGDAQFNIWGPGTLVTVSS VL: AAVLTQTPSPVSAAVGGTVSISCQSSESVYNKNQLCWYQQKPGQRPKLLIYDASTLASGVPSRFSGSGSGTQFTLTISDVQSDAAATYYCAGGYSVTSDTTFGGGTEVVVR | 4 | 0.0139 | 870 | – | – | – | –
MAB-19-0217 (antibody, human IgG1, V domains shown, Chimeric rabbit/human antibody, human IgG1 constant parts with L234A and L235A (LALA); also called chimeric anti-PD-1 MAB-19-0217) VH: QSVEESGGRLVTPGTPLTLTCTVSGFSLSRYYMTWVRQAPGKGLEWIGIIYPDTGTTWYASWVKGRFTFSKTSSTTVDLKMTSPTTEDTATYFCARSTTDAQFNIWGPGTLVTVSS VL: AAVLTQTPSPVSAAVGGTVSISCQSSENVYTDNQLCWYQQKPGQRPKLLIYDASTLASGVPSRFSGSGSGTQFTLTISGVQSDDAATYYCAGGYSTTSDTTFGGGTEVVVK | 9.2 | 0.0063 | 720 | – | – | – | –
MAB-19-0603 (antibody, IgG1, V domains shown, Recombinant humanized hIgG1-LALA antibody) VH: QVQLVESGGGLVQPGTSLRLSCSVSGFSLYSYNMGWVRQAPGKGLEYIGIISGGTIGHYASWAKGRFTISRDTSKTTLYLQMNSLTTEDTATYFCARAFYDDYDYNVWGPGTLVTVSS VL: DIVMTQSPSSLSASVGDRVTITCQSSQSVYGNNQLSWYQQKPGKAPKLLIYQASKLETGVPSRFSGSGSGTDFTLTISSLQPEDFATYYCAGGYSSSSDTTFGGGTKVVIK | – | – | – | 2.8 | 85 | 3.3 | –
MAB-19-0598 (antibody, IgG1, V domains shown, Recombinant humanized hIgG1-LALA antibody) VH: QVQLVESGGDVVKPGRSLRLSCKASGIDFSSVYYMCWVRQAPGKGLEWIACIYVGSSGVSYYATWAKGRFTISRDTSTSTLFLQMNSLRAGDTATYYCARAGYVGAVYVTLTRLDLWGQGTLVTVSS VL: DIQMTQSPSSLSASVGGTVTITCQSSQSIYTNNDLAWYQQKPGQPPKLLIYDASKLASGVPSRFSGSGSGTQFTLTISSLQSEDAATYYCLGGYDDDADNAFGGGTEVVVK | – | – | – | 5.7 | 368 | 8.8 | –
MAB-19-0583 (antibody, IgG1, V domains shown, Recombinant humanized hIgG1-LALA antibody) VH: QVQLVESGGDVVKPGRSLRLSCKASGIDFSSVYYMCWVRQAPGKGLEWIACIYVGSSGVSYYATWAKGRFTISRDTSTSTLFLQMNSLRAGDTATYYCARAGYVGAVYVTLTRLDLWGQGTLVTVSS VL: DVVMTQSPSTVSASVGDRVTLTCQSSQSIYTNNDLAWYQQKPGQPPKLLIYDASKLASGVPDRFSGSGSGTDFTLTISSLQADDFATYYCLGGYDDDADNAFGQGTKVEIK | – | – | – | 3.6 | 188 | 7.5 | –
MAB-19-0594 (antibody, IgG1, V domains shown, Recombinant humanized hIgG1-LALA antibody) VH: EVQLEESGGGLVKPGGSLRLSCAASGIDFSSVYYMCWVRQAPGKGLEWVSCIYVGSSGVSYYATWAKGRFTISRDNSKNTLYLQMNSLRAEDTAVYYCARAGYVGAVYVTLTRLDLWGRGTLVTVSS VL: DIQMTQSPSSLSASVGGTVTITCQSSQSIYTNNDLAWYQQKPGQPPKLLIYDASKLASGVPSRFSGSGSGTQFTLTISSLQSEDAATYYCLGGYDDDADNAFGGGTEVVVK | – | – | – | 9.5 | 311 | 14.6 | –

Second part, the binder after the results:

EC50 [1] [ng/mL] | EC50 [2] [µg/mL] | hPD-1 blockade assay IC50 [3] [ng/mL] | EC50 [4] [ng/mL] | hPD-1 blockade assay IC50 [5] [ng/mL] | EC50 [6] [ng/mL] | fold difference in EC50 values (RiboMab-19-0233 against RiboMab-19-0202) [7] [fold] | Binder
– | – | – | – | – | – | ~2.5 | RiboMab-19-0233 (antibody, V domains shown, Tested as HEK293T/17 supernatant, concentration not determined) VH: QSLEESGGDLVKPGASLTLTCKASGIDFSSVYYMCWVRQAPGKGLEWIACIYVGSSGVSYYATWAKGRFTISKTSSTTVTLQMTSLTAADTATYFCARAGYVGAVYVTLTRLDLWGQGTLVTVSS VL: AAVLTQTPSPVSAAVGGTVTISCQSSQSIYTNNDLAWYQQKPGQPPKLLIYDASKLASGVPSRFSGSGSGTQFTLTISGVQSDDAATYYCLGGYDDDADNAFGGGTEVVVK
– | – | – | 1.7 | 57 | 8 | – | MAB-19-0618 (antibody, IgG1, V domains shown, Recombinant humanized hIgG1-LALA antibody) VH: QVQLVESGGGLVQPGTSLRLSCSVSGFSLYSYNMGWVRQAPGKGLEYIGIISGGTIGHYASWAKGRFTISRDTSKTTLYLQMNSLTTEDTATYFCARAFYDDYDYNVWGPGTLVTVSS VL: AIQLTQSPSSLSASVGGTVTITCQSSQSVYGNNQLSWYQQKPGQPPKLLIYQASKLETGVPSRFRGSGSGTQFTLTISSLQSEDFATYYCAGGYSSSSDTTFGGGTEVVVK
– | – | – | 1.2 | 93 | 4.4 | – | MAB-19-0613 (antibody, IgG1, V domains shown, Recombinant humanized hIgG1-LALA antibody) VH: QVQLVESGGGLVQPGTSLRLSCSVSGFSLYSYNMGWVRQAPGKGLEYIGIISGGTIGHYASWAKGRFTISRDTSKTTLYLQMNSLTTEDTATYFCARAFYDDYDYNVWGPGTLVTVSS VL: DIQMTQSPSSLSASVGDRVTITCQSSQSVYGNNQLSWYQKKPGQAPKLLIYQASKLETGVPSRFSGSGSGTDFTLTISSLQPEDFATYYCAGGYSSSSDTTFGPGTKVDIK
– | – | – | 2.8 | 63 | 7.7 | – | MAB-19-0608 (antibody, IgG1, V domains shown, Recombinant humanized hIgG1-LALA antibody) VH: QVQLVESGGGLVQPGTSLRLSCSVSGFSLYSYNMGWVRQAPGKGLEYIGIISGGTIGHYASWAKGRFTISRDTSKTTLYLQMNSLTTEDTATYFCARAFYDDYDYNVWGPGTLVTVSS VL: DIQMTQSPSTLSASVGDRVTITCQSSQSVYGNNQLSWYQQKPGKAPKLLIYQASKLETGVPSRFSGSGSGTQFTLTISSLQPDDFASYYCAGGYSSSSDTTFGQGTKVEIK
